Experimental data published in US20210128683A1 (RISE BIOPHARMACEUTICALS, published 2021).

Legend:
CXCR1 = target: T1, CXCR1 (UniProt P25024 1-350, limits assumed); assay: indirect ELISA, ONCO P8-CXCR1 complex formation
T1 construct: also called IL-8R
T1 sequence (looked up): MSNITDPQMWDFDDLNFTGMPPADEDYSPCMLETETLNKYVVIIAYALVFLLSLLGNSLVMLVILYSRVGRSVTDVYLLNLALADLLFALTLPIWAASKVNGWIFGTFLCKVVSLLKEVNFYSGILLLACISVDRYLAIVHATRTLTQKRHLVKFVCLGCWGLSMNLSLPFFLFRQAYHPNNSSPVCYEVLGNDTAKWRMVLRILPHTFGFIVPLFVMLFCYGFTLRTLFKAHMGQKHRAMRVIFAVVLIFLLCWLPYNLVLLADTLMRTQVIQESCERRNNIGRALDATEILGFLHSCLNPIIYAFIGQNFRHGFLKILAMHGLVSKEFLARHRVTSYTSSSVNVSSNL
Text: The Kd Equation include: (1) i=A_{450 nm}/A^max_{450 nm}, then i=Ligand/Ligand^max; (2) 1/(1−i)=(Ligₜₒₜ/i)/Kd−b, b=fqSrec/Kd.

CXCR2 = target: T2, CXCR2 (UniProt P25025 1-360, limits assumed); assay: indirect ELISA, ONCO P8-CXCR2 complex formation
T2 construct: also called IL-8R
T2 sequence (looked up): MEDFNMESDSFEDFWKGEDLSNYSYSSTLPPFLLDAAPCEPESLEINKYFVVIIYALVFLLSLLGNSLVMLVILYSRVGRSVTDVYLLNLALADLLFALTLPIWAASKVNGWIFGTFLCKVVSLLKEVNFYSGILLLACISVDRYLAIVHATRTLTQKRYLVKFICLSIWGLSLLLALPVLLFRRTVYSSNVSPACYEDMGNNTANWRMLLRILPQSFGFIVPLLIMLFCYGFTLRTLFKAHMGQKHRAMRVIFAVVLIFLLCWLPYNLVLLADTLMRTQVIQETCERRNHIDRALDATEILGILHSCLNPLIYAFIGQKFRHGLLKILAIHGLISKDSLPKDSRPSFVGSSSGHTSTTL

B1: ONCO P-8 (peptide)
chain: GSKELRCQCIRSYSKPFHPKFIKELRVIPASQFCANTEIIVKLSDGRELCLDPKENWVQRVVEKFLKRAENS
notes: Designed analogue of CXCL8 (IL-8), described as an antagonist of CXCR1 and CXCR2; also called chemokine receptor antagonistic modified peptide
Binder B1 has a Kd (CXCR1) of 286 nM and a Kd (CXCR2) of 139 nM.
